From PMC3024951 (Molecular Brain, 2011)
Bridges are numbered along the chain shown (N, C = ends). Where no end group is shown, it is not given here.

How the values were obtained:
[1] = biological target: Extracellular IL-6R (interleukin-6 receptor) (UniProt P08887)
[2] = biological target: T1, Extracellular IL-6R (interleukin-6 receptor) (UniProt P08887 20-365); assay: ELISA; competitive inhibition: 45 nM biotinylated IL-6 and 1 nM-2 μM protein/peptide with IL-6R coated beads (350 nM) in PBS-BSA, 25°C, 1 h; detected with SA-HRP; conditions: both partners purified
T1 construct: also called soluble extracellular IL-6R; source: bought: PeproTech
T1 sequence: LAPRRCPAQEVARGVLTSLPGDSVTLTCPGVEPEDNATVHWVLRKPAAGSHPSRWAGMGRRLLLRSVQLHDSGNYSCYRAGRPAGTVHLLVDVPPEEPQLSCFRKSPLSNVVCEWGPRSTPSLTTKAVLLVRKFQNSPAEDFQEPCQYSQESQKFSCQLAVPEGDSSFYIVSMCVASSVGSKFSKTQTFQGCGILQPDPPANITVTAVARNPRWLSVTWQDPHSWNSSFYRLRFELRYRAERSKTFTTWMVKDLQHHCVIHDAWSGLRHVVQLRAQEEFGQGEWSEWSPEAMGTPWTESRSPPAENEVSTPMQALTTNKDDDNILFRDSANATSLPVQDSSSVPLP

[3] = biological target: T1, Extracellular IL-6R (interleukin-6 …); assay: cell-based or functional assay
[4] = biological target: T1, Extracellular IL-6R (interleukin-6 …); assay: ELISA; […] (200 nM), 30 min; […]; conditions: both partners purified

B1: 14-L1 (peptide)
peptide: LVCYAPLPYTPGTLETGPDDFTCV
modifications: disulfide 3-23
[1]
  EC50 (ED50), proliferation of DS-1 cells in the absence of IL-6: 30 nM

B2: R10-13 (designed binder)
chain: LVCYQLLACRPGTLETCPDDFTCVATRHTLGHNLTQYCSHAHAIPTPRARTGCCQTDKCNG
[2]
  IC50: 113 ± 7 nM
[3]
  IC50, inhibition of the IL-6 dependent proliferation of DS-1 cells (IL-6 with IL-6R): 1400 nM
[4]
  Kd: 48 ± 8 nM

B3: R10-15 (designed binder)
chain: LVCYQLLACRPGTLETCPDDFTCVATRHTLGHNLTQYCSHAYAIPACETPASCCQTDKCNG
[2]
  IC50: 102 ± 13 nM
[4]
  Kd: 115 ± 9 nM
